Experimental data as given in article PMC8528861 (2021).
Where no end group is shown, it is not given here. [ ]: non-standard residue; d: D form. pY = N[C@@H](Cc1ccc(OP(=O)(O)O)cc1)C(=O)O

Tests used:
Assay in all cases: SPR
[1] = biological target: mouse SH2B SH2 domain (mouse, UniProt Q91ZM2 527-625)
[2] = biological target: M. musculus LNK SH2 domain R387C (mouse, UniProt O09039 325-438, R387C)
[3] = biological target: M. musculus LNK SH2 domain R387H (mouse, UniProt O09039 325-438, R387H)
[4] = biological target: M. musculus LNK SH2 domain (residues 324–446), wild type (mouse, UniProt O09039 324-446)
Sequence of M. musculus LNK SH2 domain (residues 324–446), wild type (O09039 324-446): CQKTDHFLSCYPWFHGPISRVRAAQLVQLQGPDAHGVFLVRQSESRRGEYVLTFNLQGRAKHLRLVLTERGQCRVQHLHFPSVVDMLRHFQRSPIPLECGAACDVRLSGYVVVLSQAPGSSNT

Sequence of M. musculus LNK SH2 domain R387C (O09039 325-438 R387C): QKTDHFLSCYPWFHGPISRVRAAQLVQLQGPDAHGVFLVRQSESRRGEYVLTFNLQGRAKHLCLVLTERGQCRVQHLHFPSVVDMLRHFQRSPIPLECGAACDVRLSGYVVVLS
Sequence of M. musculus LNK SH2 domain R387H (O09039 325-438 R387H): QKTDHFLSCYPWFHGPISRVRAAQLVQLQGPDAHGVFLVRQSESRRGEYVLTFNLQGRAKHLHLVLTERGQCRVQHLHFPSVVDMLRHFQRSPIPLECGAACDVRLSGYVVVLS

Kd [1]: 108 nM | Kd [2]: 76 nM | Kd [3]: 242 nM | Kd [4]: 27 nM
Binder: FTPD[pY]ELLTEND (also: biotin, site not given here) [biotinylated JAK2 pY813 peptide]
